Columns and labels:
[1] = glucosidase activity measurement of culture supernatant (pNPG); format: biochemical
Procedure: A mutant strain which formed a large colony was selected from P3AaBGL1 mutant strain library. Then, thus selected strain and P3ASP3326 strain as the original strain were cultivated in 150 μl/well (96-well plate) of YES medium at 30° C. for two days. 50 μl of each culture supernatant was diluted by 150 μl of 50 mM acetate buffer (pH 5.0) to prepare a diluted enzyme sample. Then, the enzymatic activity of the sample was measured in accordance with the following method.
To 10 μl of 20 mM p-nitrophenyl-β-D-glucoside (hereinafter abbreviated as pNPG), 10 μl of 1M sodium acetate buffer solution (pH 5.0) and 130 μl of water were added, and then 50 μl of the diluted enzyme sample was introduced for reacting them at 37° C. for 10 minutes. 100 μl of the reaction mixture was mixed with 100 μl of 2% sodium carbonate solution to terminate reaction, and then the amount of free p-nitrophenol was colorimetrically measured at a wavelength of 450 nm.
The amount of enzyme that produces 1 μmol of p-nitrophenol per minute was defined as 1 U.
The P3AaBGL1 mutant strain obtained as above was cultivated in YES medium at 30° C. for one day. 100 μl of the culture broth was inoculated on 5 ml of YPD medium (1% of yeast extract, 2% of peptone, and 2% of glucose), followed by cultivation at 30° C. for two days. Thereafter, the culture broth was centrifuged to obtain a culture supernatant.
(§1) By using the above-obtained culture supernatant of the P3AaBGL1 mutant strain, a diluted enzyme sample was prepared, and then the enzymatic activity of the sample was measured in accordance with the above-described activity measurement method. Further, the glucose inhibition at a final glucose concentration of from 0.1 to 200 mM and the thermostability at a warming temperature of from 50 to 75° C. were measured for evaluation.

[2] = thermostability measurement (residual glucosidase activity after heat treatment); format: physicochemical; conditions: for Residual glucosidase activity, Temp 50° C. / Residual glucosidase activity, Temp 55° C. / Residual glucosidase activity, Temp 60° C. / Residual glucosidase activity, Temp 65° C. / Residual glucosidase activity, Temp 70° C. / Residual glucosidase activity, Temp 73° C. / Residual glucosidase activity, Temp 75° C. / Residual glucosidase activity, Untreated: Example 9; for Residual glucosidase activity, Temp 50° C.: 10 minutes at 50° C.; for Residual glucosidase activity, Temp 55° C.: 10 minutes at 55° C.; for Residual glucosidase activity, Temp 60° C.: 10 minutes at 60° C.; for Residual glucosidase activity, Temp 65° C.: 10 minutes at 65° C.; for Residual glucosidase activity, Temp 70° C.: 10 minutes at 70° C.; for Residual glucosidase activity, Temp 73° C.: 10 minutes at 73° C.; for Residual glucosidase activity, Temp 75° C.: 10 minutes at 75° C.; for Residual glucosidase activity, Untreated: no heat treatment (reference set to 100); for thermostability (in words): compared with P3AaBGL1 / β-glucosidase without the mutation
Procedure: To 10 μl of 20 mM pNPG, 10 μl of 1M sodium acetate buffer solution (pH 5.0) and 130 μl of water were added, and then 50 μl of a diluted enzyme sample preliminarily heat-treated at […] for 10 minutes was introduced for reacting them at 37° C. for 10 minutes. As a control, a diluted enzyme sample which was not subjected to the heat treatment was used, and then the reaction was carried out at 37° C. for 10 minutes, in the same manner. 100 μl of each reaction mixture was mixed with 100 μl of 2% sodium carbonate solution to terminate reaction, and then the amount of liberated p-nitrophenol was colorimetrically measured at a wavelength of 450 nm.
The ratio (%) of the colorimetric value of each reaction mixture to the colorimetric value of the control sample (untreated sample) was defined as the residual activity after heat treatment.
as §1
(§2) 11F10 strain, 22A12 strain, 28C02 strain, 29F09 strain and mutBGL1 strain selected from the mutant strains, and ASP3326 strain as the original strain were cultivated in a Sakaguchi flask containing 100 ml of YPD medium at 30° C. for two days. To each of the culture supernatants obtained by cultivating them, […] was added until 80% saturation was reached, thereby to carry out ammonium sulfate precipitation at 4° C. for 2 hours. Thereafter, centrifugation was carried out to collect pellets, and the pellets were dissolved in 10 ml of 10 mM citrate phosphate buffer solution (pH 7.0). Then, desalting and concentration were carried out by using an ultrafiltration membrane having MWCO of 100,000, thereby to recover 1 ml of a crude liquid. Thus recovered crude liquid was purified by using Hitrap QXL column to collect a fraction of a peak of pNPG activity, thereby to obtain a purified sample. Elution was carried out by using a 10 mM citrate phosphate buffer solution (pH 7.0) and a NaCl concentration gradient (0 to 1M).
(§3) In the same manner as in Example 1, the residual glucosidase activities after glucose inhibition at a glucose concentration of from 0.1 to 200 mM were measured. Further, the residual glucosidase activities after heat treatment at a temperature of from 50 to 75° C. for 10 minutes were measured.

[3] = glucose inhibition measurement (residual glucosidase activity in the presence of glucose); format: biochemical; conditions: for Residual glucosidase activity, Glc 0 mM / Residual glucosidase activity, Glc 1 mM / Residual glucosidase activity, Glc 5 mM / Residual glucosidase activity, Glc 10 mM / Residual glucosidase activity, Glc 20 mM / Residual glucosidase activity, Glc 50 mM / Residual glucosidase activity, Glc 100 mM / Residual glucosidase activity, Glc 200 mM: Example 9; for Residual glucosidase activity, Glc 0 mM: glucose 0 mM (reference set to 100); for Residual glucosidase activity, Glc 1 mM: glucose 1 mM; for Residual glucosidase activity, Glc 5 mM: glucose 5 mM; for Residual glucosidase activity, Glc 10 mM: glucose 10 mM; for Residual glucosidase activity, Glc 20 mM: glucose 20 mM; for Residual glucosidase activity, Glc 50 mM: glucose 50 mM; for Residual glucosidase activity, Glc 100 mM: glucose 100 mM; for Residual glucosidase activity, Glc 200 mM: glucose 200 mM; for resistance to glucose inhibition (in words): compared with P3AaBGL1 / β-glucosidase without the mutation
Procedure: To 10 μl of 20 mM pNPG, 10 μl of 1M sodium acetate buffer solution (pH 5.0) and from 4 to 10 μl of 1M glucose (final concentration of from 20 to 50 mM) were added, followed by addition of water up to the total volume of 150 μl. Thereafter, 50 μl of the diluted enzyme sample was introduced for reacting them at 37° C. for 10 minutes. As a control, a glucose-free reaction mixture was used, and then the reaction was carried out at 37° C. for 10 minutes, in the same manner. 100 μl of each reaction mixture was mixed with 100 μl of 2% sodium carbonate solution to terminate reaction, and then the amount of liberated p-nitrophenol was colorimetrically measured at a wavelength of 450 nm.
The ratio (%) of the colorimetric value of each reaction mixture to the colorimetric value of the control sample (glucose-free sample) was defined as the residual activity after glucose inhibition.
as §1, §2, §3

[4] = culture supernatant, relative to 0 mM glucose, Tables 7-10

Row | Molecule | Activity ([1]; Example 9, Table 11) | Residual glucosidase activity, Temp 50° C. [2] | Residual glucosidase activity, Temp 55° C. [2] | Residual glucosidase activity, Temp 60° C. [2] | Residual glucosidase activity, Temp 65° C. [2] | Residual glucosidase activity, Temp 70° C. [2] | Residual glucosidase activity, Temp 73° C. [2] | Residual glucosidase activity, Temp 75° C. [2] | Residual glucosidase activity, Untreated [2] | thermostability (in words) [2] | Residual glucosidase activity, Glc 0 mM [3] | Residual glucosidase activity, Glc 1 mM [3] | Residual glucosidase activity, Glc 5 mM [3] | Residual glucosidase activity, Glc 10 mM [3] | Residual glucosidase activity, Glc 20 mM [3] | Residual glucosidase activity, Glc 50 mM [3] | Residual glucosidase activity, Glc 100 mM [3] | Residual glucosidase activity, Glc 200 mM [3] | resistance to glucose inhibition (in words) [3] | other results
1 | 6H05 |  |  |  |  |  |  |  |  |  |  |  |  |  |  |  |  |  |  |  | Activity ([1]; pNPG, pH 5.0, 37° C., 10 minutes, Tables 7-10): 525 mU/ml; Residual activity, Temp 65° C. ([2]; culture supernatant warmed 10 minutes at 65° C., relative to no heat treatment, Tables 7-10): 73%; Residual activity, Temp 67° C. ([2]; culture supernatant warmed 10 minutes at 67° C., relative to no heat treatment, Tables 7-10): 59%; Residual activity, Glc 20 mM [3, 4]: 41%; Residual activity, Glc 50 mM [3, 4]: 23%
2 | I260F: modified-type P3AaBGL1 with I260F only (mutation 1) (protein) MKITAVIALLFSLAAASPIPVADPGVVSVSLKKRADELAFSPPFYPSPWANGQGEWAEAYQRAVAIVSQMTLDEKVNLTTGTGWELEKCVGQTGGVPRLNIGGMCLQDSPLGIRDSDYNSAFPAGVNVAATWDKNLAYLRGQAMGQEFSDKGIDVQLGPAAGPLGRSPDGGRNWEGFSPDPALTGVLFAETIKGIQDAGVVATAKHYILNEQEHFRQVAEAAGYGFNISDTISSNVDDKTIHEMYLWPFADAVRAGVGAFMCSYNQINNSYGCQNSYTLNKLLKAELGFQGFVMSDWGAHHSGVGSALAGLDMSMPGDITFDSATSFWGTNLTIAVLNGTVPQWRVDDMAVRIMAAYYKVGRDRLYQPPNFSSWTRDEYGFKYFYPQEGPYEKVNHFVNVQRNHSEVIRKLGADSTVLLKNNNALPLTGKERKVAILGEDAGSNSYGANGCSDRGCDNGTLAMAWGSGTAEFPYLVTPEQAIQAEVLKHKGSVYAITDNWALSQVETLAKQASVSLVFVNSDAGEGYISVDGNEGDRNNLTLWKNGDNLIKAAANNCNNTIVVIHSVGPVLVDEWYDHPNVTAILWAGLPGQESGNSLADVLYGRVNPGAKSPFTWGKTREAYGDYLVRELNNGNGAPQDDFSEGVFIDYRGFDKRNETPIYEFGHGLSYTTFNYSGLHIQVLNASSNAQVATETGAAPTFGQVGNASDYVYPEGLTRISKFIYPWLNSTDLKASSGDPYYGVDTAEHVPEGATDGSPQPVLPAGGGSGGNPRLYDELIRVSVTVKNTGRVAGDAVPQLYVSLGGPNEPKVVLRKFDRLTLKPSEETVWTTTLTRRDLSNWDVAAQDWVITSYPKKVHVGSSSRQLPLHAALPKVQ | 457 mU/ml | 97.0% | 91.2% | 87.7% | 65.2% | 22.6% | 1.8% | 1.8% | 100% | increase | 100% | 95.9% | 73.6% | 55.6% | 39.0% | 20.2% | 11.4% | 6.3% | increase | 
3 | N458S: modified-type P3AaBGL1 with N458S only (mutation 3) (protein) MKITAVIALLFSLAAASPIPVADPGVVSVSLKKRADELAFSPPFYPSPWANGQGEWAEAYQRAVAIVSQMTLDEKVNLTTGTGWELEKCVGQTGGVPRLNIGGMCLQDSPLGIRDSDYNSAFPAGVNVAATWDKNLAYLRGQAMGQEFSDKGIDVQLGPAAGPLGRSPDGGRNWEGFSPDPALTGVLFAETIKGIQDAGVVATAKHYILNEQEHFRQVAEAAGYGFNISDTISSNVDDKTIHEMYLWPFADAVRAGVGAIMCSYNQINNSYGCQNSYTLNKLLKAELGFQGFVMSDWGAHHSGVGSALAGLDMSMPGDITFDSATSFWGTNLTIAVLNGTVPQWRVDDMAVRIMAAYYKVGRDRLYQPPNFSSWTRDEYGFKYFYPQEGPYEKVNHFVNVQRNHSEVIRKLGADSTVLLKNNNALPLTGKERKVAILGEDAGSNSYGANGCSDRGCDSGTLAMAWGSGTAEFPYLVTPEQAIQAEVLKHKGSVYAITDNWALSQVETLAKQASVSLVFVNSDAGEGYISVDGNEGDRNNLTLWKNGDNLIKAAANNCNNTIVVIHSVGPVLVDEWYDHPNVTAILWAGLPGQESGNSLADVLYGRVNPGAKSPFTWGKTREAYGDYLVRELNNGNGAPQDDFSEGVFIDYRGFDKRNETPIYEFGHGLSYTTFNYSGLHIQVLNASSNAQVATETGAAPTFGQVGNASDYVYPEGLTRISKFIYPWLNSTDLKASSGDPYYGVDTAEHVPEGATDGSPQPVLPAGGGSGGNPRLYDELIRVSVTVKNTGRVAGDAVPQLYVSLGGPNEPKVVLRKFDRLTLKPSEETVWTTTLTRRDLSNWDVAAQDWVITSYPKKVHVGSSSRQLPLHAALPKVQ | 586 mU/ml | 98.6% | 95.7% | 91.6% | 64.2% | 19.4% | 0.8% | 1.6% | 100% | can be improved | 100% | 92.7% | 68.1% | 52.1% | 35.9% | 17.7% | 10.4% | 6.0% | without decreasing | 
